Test results reported in US20110124556 (published 2011).
Non-standard residues stand in square brackets, D forms with d. No end group written: not given here. Tic = O=C(O)[C@@H]1Cc2ccccc2CN1; Ac6c = NC1(C(=O)O)CCCCC1; βturn = not defined here

Target: human insulin receptor (HIR) (human, UniProt P06213)
Assay: competition

| Binder | Kd |
| --- | --- |
| S439 (peptide) chain 1: ESFYDWFERQLGGGGK chain 2: QEWAWVQCEVYGRGCPS | 46 nM |
| S217 (peptide) chain 1: SDGFYNAIELLS chain 2: SDGFYNAIELLS | 3900 nM |
| ANFYDWFVAELG [S242] | 20000 nM |
| NSFYEALRMLSSK [S121] | 31 nM |
| RGTRSDPFYHKLSELLQGH [S368] | > 20000 nM |
| S442 (peptide) chain 1: ESFYDWFERQLGGGGK chain 2: AWVQCEVYGRGCPS | 160 nM |
| S379 (not fully specified; listing feature) chain 1: GSLDESFYDWFERQLGKKKX chain 2: GSLDESFYDWFERQLGKKKX | 56 nM |
| FHENFADWFVRQVSKK [S220] | > 2000 nM |
| S252 (listing feature) chain 1: SDGFYNAIELLSX chain 2: SDGFYNAIELLSX | 440 nM |
| HETFYSMIRSLAK [S117] | 27 nM |
| S218 (listing feature) chain 1: AFYDWFAKKX chain 2: AFYDWFAKKX | 11000 nM |
| GRVDWLQRNANFYDWFV [S251] | 56000 nM |
| S301 (listing feature) chain 1: XDWLQRNANFYDWFVAEL chain 2: XDWLQRNANFYDWFVAEL | 640 nM |
| AFYDWFAKK [S167] | > 2000 nM |
| NFYDWFVAELG [S243] | 2000 nM |
| WFYDWFWE [S315] | 68 nM |
| HPTSKEIYAKLLK [S122] | 93 nM |

| Binder | Kd |
| --- | --- |
| EHWNTVDPFYFTLFEWLRESG [S177] | 27000 nM |
| SDGFYNAIELLS [S118] | 24000 nM |
| TGHRLGLDEQFYWWFRDALSG [S265] | 110 nM |
| GIISQSCPESFYDWFAGQVSDPWWCW [S326 (G33)] | 590 nM |
| EGWDFYSYFSGLLASVT [S259] | 7700 nM |
| FHENFYDWFVRQVSKKXXSDGFYNAIELLS (not fully specified; listing feature) [S273] | 15 nM |
| FHENFYDWFVRAVSKK [S107] | 1000 nM |
| S360 (listing feature) chain 1: XDWLQRNANFYDWFVAEL chain 2: XDWLQRNANFYDWFVAEL | 990 nM |
| S246 (not fully specified; listing feature) chain 1: ACAWPTYWNCGGGGX chain 2: FHENFYDWFVRQVSKKX | 50 nM |
| S438 (peptide) chain 1: ESFYDWFERQLGGGGK chain 2: DQEWAWVQCEVYGRGCPS | 30 nM |
| PLCFLQELFGGASLGGYCSG [S262] | 19000 nM |
| S443 (peptide) chain 1: ESFYDWFERQLGGGGK chain 2: WVQCEVYGRGCPS | 170 nM |
| S231 (listing feature) chain 1: FHENFYDWFVRQVSKKGGGX chain 2: FHENFYDWFVRQVSKKGGGX | 270 nM |
| LAQEWAWVQCEVYGRGCPSESFYDWFERQL [S495] | 2.6 nM |
| AHENFYDWFVRQVSKK [S113] | 590 nM |
| S456 (not fully specified; listing feature) chain 1: GSLDESFYDWFERQLGKK chain 2: XKEWLDQEWAWVQCEVYGRGCPSEE | 2.4 nM |

Further lines, results first:

| Kd | Binder |
| --- | --- |
| 0.075 nM | SLEEEWAQVECEVYGRGCPSFYDWFERQL [S531] |
| 0.0085 nM | Ac-SLEEEWAQIECEVYGRGCPSESFYDWFERQL (ends and bridges not checked) [S597] |
| 5.7 nM | LDQEWAWVQSEVYGRGSPSESFYDWFERQL [S509] |
| 0.013 nM | SLEEEWAQIQCEVWGRCSESFYDWFERQL [S564] |
| 0.012 nM | S580 (not fully specified (bridges); printed as SLEEEWAQVECEVYGRGC-βturn-ESFYDWFERQLG; ends and bridges not checked; also: chain 1 continues via βturn into chain 2 (C-N fusion)) chain 1: SLEEEWAQVECEVYGRGC-βturn chain 2: ESFYDWFERQLG |
| 0.011 nM | HHHHHHKSLEEEWAQVECEVYGRGCPSGSLDESFYDWFERQLG [S524] |
| 40 nM | GSLDESFYDWFERQLGXK (listing feature) [S550] |
| 0.62 nM | LEEEWAQIQREVWHSPASESFYDWFERQL [S595] |
| 0.062 nM | SLEEEWAQVECEVYGRGCPSGGSGGSGLLDESFYHWFDRQLR [S510] |
| 0.013 nM | SLEEEWAQVECEVYGRGCSGSLDESFYDWFERQLG [S549] |
| 0.01 nM | SLEEEWAWVQCEVYGRGCPSESFYDWFERQL [S534] |
| 0.02 nM | SLEEEWAQIECEVYGRGCPSESFYDWFERQL (not fully specified (N-terminus); ends and bridges not checked) [S557] |
| 0.008 nM | SLEEEWAQVECEVYGRGCPSESFYDWFERQL [S530] |
| 0.045 nM | SLEEEWAQIQHELYGPAESESFYDWFERQL [S596] |
| 2.4 nM | S527 (not fully specified; printed as H-Acy-CAQEwGSEL-Tic-QCSGSESFYDWFERQL; ends and bridges not checked) chain 1: H[Ac6c]CAQE[dW]GSEL chain 2: [Tic]QCSGSESFYDWFERQL |
| 0.014 nM | S563 (cysteine pairing not given here) chain 1: SLEEEWAQIQCEVWG chain 2: R[dN][dC]SESFYDWFERQL |
| 2.2 nM | SIEEEWAQIKCDVWGRGCPSY [S593] |
| 0.018 nM | SIEEEWAQIKCDVWGRCSESFYDWFERQL [S562] |
| 0.044 nM | SLEHEWAQVECEVYGRGCPSGSLDESFYDWFERQLG [S537] |
| 0.013 nM | SLEEEWAQVKCEVYGRGCPSGSLDESFYDWFERQLG [S540] |
| 0.027 nM | SLEEEWAQVECEVYGRGCPSGSLDESFYHWFERQLG [S542] |
| 0.0078 nM | SLEEEWAQVECEVWGRGCPSGSLDESFYDWFERQLG [S541] |
| 0.038 nM | SLEQEWAQVECEVYGRGCPSGSLDESFYDWFERQLG [S538] |
| 0.098 nM | SLELEWAQVECEVYGRGCPSGSLDESFYDWFERQLG [S539 (printed S519)] |
| 0.15 nM | SLEEEWAQIEEVWGRGPSESFYDWFERQLG [S569] |
| 0.014 nM | SLEEEWAQIECEVWGRGCPSGSLDESFYDWFERQL [S560] |
| 4.1 nM | SLEEEWAQVECEVWGRGCPS [S548] |
| 0.0064 nM | SLEEEWAQIECEVYGRGCPSESFYDWFERQLG [S554] |
